Legend:
[1] = test system: PDX AML cells with FLT3-ITD mutation; experiment: Ex vivo treatment of patient derived xenograft (PDX) samples; format: cell-based, human
human CD64 = target: T1, human CD64 (Homo sapiens, UniProt P12314); experiment: Cell surface binding to Ba/F3 human CD64, flow cytometry
T1 construct: host or cells: Ba/F3 cells, retrovirally transduced with MSCV-IRES-YFP (pMIY) vector
Description: For antibody binding studies, cells were stained on ice with primary mouse, rat or human anti-FLT3 antibodies (in house) and secondary antibody Goat F(ab′)2 Anti-Human Ig-PE (2012-09), Goat Anti-Mouse IgG (H+L)-PE (1032-09) or Goat Anti-Rat IgG (H+L)-PE (3052-09) purchased from Southern Biotech. For internalization experiments, cells incubated with anti-FLT3 antibodies were washed and incubated for 30 min at 4° C. or 37° C. followed by staining with secondary antibody.
Murine FLT3 (OMu21985D, Genescript), human CD64 (RC207487), CD32 (RC205786) and CD16 (RC206429), were purchased from Origene. Cynomolgues monkey FLT3 gene was synthesized from XM_015439107.1 by Eurofins. The constructs were cloned into retroviral expression vector MSCV-IRES-YFP (pMIY) using the In-Fusion HD Cloning Plus Kit (Takara Bio, Saint-Germain-en-Laye, France). All FLT3 point mutations were generated using the QuikChange II XL Site-Directed Mutagenesis Kit (Agilent Technologies, Santa Clara, CA, USA) and correct sequence was confirmed by Sanger sequencing. […]
For FLT3 expression analysis, cells were stained on ice with primary mouse anti-FLT3-AF647 antibodies for 30 min. […] Binding and expression were subsequently measured at the flow cytometer (BD FACSCanto II) and the results were evaluated with FlowJo version 10.8.1.

T1 sequence (P12314 16-374): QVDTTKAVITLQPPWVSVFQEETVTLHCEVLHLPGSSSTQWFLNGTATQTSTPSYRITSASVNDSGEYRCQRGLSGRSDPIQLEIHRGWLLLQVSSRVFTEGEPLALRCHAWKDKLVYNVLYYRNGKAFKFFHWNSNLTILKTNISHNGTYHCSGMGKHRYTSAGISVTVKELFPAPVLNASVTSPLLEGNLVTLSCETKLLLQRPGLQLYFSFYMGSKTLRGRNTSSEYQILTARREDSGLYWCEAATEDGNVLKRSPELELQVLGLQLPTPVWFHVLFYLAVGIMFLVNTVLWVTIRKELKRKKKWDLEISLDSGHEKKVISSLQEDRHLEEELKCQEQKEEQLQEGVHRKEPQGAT

B1: 20D9: chimeric (rat variable regions, human IgG1) anti-FLT3 monoclonal antibody; VH SEQ ID NO: 5, VL SEQ ID NO: 6 (antibody, V domains shown)
VH: DVMLVESGGGLVQPGRSLKLSCVASGFTFNNYWMTWIRQAPGKGLEWIASITKTGGGTYYPDSVKGRFTISRDNAKSTLYLQMNSLRSEDTATYYCTTLQQLGVMDAWGQGASVTVSSA
VL: DVQMTQSPSVLSASVGDRITLNCKASQNINKELNWYQQKLGEAPKLLIYNTNNLQTGIPSRFSGSGSGTDYTLTISSLQPEDVATYFCFQHKSWPLTFGSGTKLEIKR
modifications: Clone 20D9, heavy chain variable region without a signal seqeunce; Clone 20D9, light chain variable region without a signal seqeunce
B1 was tested, and the “Ex vivo sensitivity of PDX cells” value [1] was “remained ineffective” and the “Binding to Fc receptor CD64 via the IgG1 backbone” value (human CD64) was “verified the binding”.

Source: patent publication US20250049939A1, “NOVEL FLT3 ANTIBODIES AND ANTIBODY-DRUG-CONJUGATES BASED THEREON, THERAPEUTIC METHODS AND USES THEREOF IN COMBINATION WITH TYROSINE KINASE INHIBITORS” (TUBULIS GmbH, priority 2021, published 2025)
